# US20140287419A1, “Compositions Having Dicamba Decarboxylase Activity and Methods of Use” (priority 2013, published 2014)
# Experiments:
# [1] = 14C assay with purified protein (14CO2 captured on Ca(OH)2 filter paper); assay type: biochemical; conditions: [14C]-carboxyl-labeled dicamba
# [2] = Detection of 2,5-DCA product by toluene capture or head-space GC/MS; assay type: biochemical; conditions: purified protein, toluene capturing
# Protocol: Alternatively, dicamba decarboxylase activity can be monitored by measuring decarboxylation products other than CO2 using product detection methods. The decarboxylation product of dicamba, 2,5-dichloro anisole or 2,5-DCA (FIG. 1C), is a volatile compound with a flash point of 21° C. To capture this volatile compound for detection, 140 ul of toluene solution is added on top of 1 ml reaction mixture to form a trapping layer in a 1.5 ml eppendorf tube. […] The reaction is kept still at room temperature overnight before being vortex mixed and centrifuged at 14,000 rpm for 15 minutes. The top toluene phase is carefully removed using a micropipette and transferred into a 12×32 mm polypropylene vial (Vial 11 mm) from MicroLiter Analytical Supplies, Inc. (catalog number 11-5300-100). The vial is sealed with Crimp seal (11 mm with FEP/Nat Rubber) from MicroLiter Analytical Supplies, Inc. (catalog number 11-0020A) using a E-Z Crimper™ 11 mm from Wheaton Inc. 1 ul of the toluene mixture is taken from the sealed vials and injected in splitless mode into a GC/MS system for sample analysis (Agilent GC/MS system with a 6890A GC, a 5973N MSD and a CTC CombiPAL auto-sampler or with a 7890A GC, a 5975C MSD and an Agilent GC Sampler 80 auto-sampler). The GC parameters are: Agilent DB-5MS column (30 m length, 0.25 mm diameter, 0.25 um film) or equivalent; The GC inlet temperature, 250° C.; Carry gas, helium in constant flow mode (1.2 mL/min); The GC oven temperature program, initial temperature at 70° C. for 1 min, ramping to 200° C. at 15° C./min, and then ramping to 250° C. at 30° C./min. MS data acquisition is done in SIM (selected ion monitoring) mode, monitoring the positive ion at M/Z 176 for the molecular ion of […]. The solvent delay for MS acquisition is set at 4 min. Another method for detection of 2,5-DCA is a head-space GC/MS method. Briefly, reaction mixtures in 500 ul reaction volume are prepared in 1.5 ml×32 mm glass vials (Microliter Analytical Supplies, Cat#11-1200) for head space analysis. Glass vials are sealed with magnetic cap from MicroLiter Analytical Supplies, Inc. (catalog number 11-0030AT) using a E-Z Crimper™ 11 mm from Wheaton Industries Inc. The reaction is carried out at room temperature for various amount of time and stopped by heating at 95° C. for 5 min. The reaction vial is transferred to a agitator for incubation at 80° C. for 5 min at 500 rpm. With a syringe preheated at 80° C., 1000 uL of head space is injected with sample fill speed at 100 uL/sec. GC/MS parameters for headspace analysis are the same as for liquid sample analysis.
# [3] = Detection of 4-chloro-3-methoxy phenol product by LC-MS/MS; assay type: biochemical; conditions: purified protein
# [4] = Detection of 2,5-DCP product by GC/MS; assay type: biochemical; conditions: purified protein
# [5] = Dicamba decarboxylation activity of computationally designed protein variants
# [6] = 14C assay with IPTG-induced recombinant E. coli cells (14CO2 capture from [14C]-carboxyl-labeled dicamba)
# [7] = Saturation mutagenesis of SEQ ID NO:109, dicamba decarboxylation activity of point mutants
# [8] = Enzyme kinetic characterization (kcat, KM, kcat/KM) by PEPC/MDH coupled enzyme assay or GC/MS measurement of 2,5-DCP
# [9] = purified protein, substrate dicamba
molecule,measurement,setting,value
"SEQ ID NO:1: 2,6-Dihydroxybenzoate Decarboxylase, Rhizobium sp. MTP-10005 (protein, listed as Rhizobium sp.) MAQGKVALEEHFAIPETLQDSAGFVPGDYWKELQHRLLDIQDTRLKLMDAHGIETMILSLNAPAVQAIPDRRKAIEIARRANDVLAEECAKRPDRFLAFAALPLQDPDAATEELQRCVNDLGFVGALVNGFSQEGDGQTPLYYDLPQYRPFWGEVEKLDVPFYLHPRNPLPQDSRIYDGHPWLLGPTWAFAQETAVHALRLMASGLFDEHPRLNIILGHMGEGLPYMMWRIDHRNAWVKLPPRYPAKRRFMDYFNENFHITTSGNFRTQTLIDAILEIGADRILFSTDWPFENIDHASDWFNATSIAEADRVKIGRTNARRLFKLDGA",CO2 product,[1],detected
same,"2,5-DCA product",[2],detected
same,4-chloro-3-methoxy phenol product,[3],detected
same,"2,5-DCP product",[4],detected
same,Dicamba Decarboxylase Activity,[5]; native protein or designed variant versus parent,native dicamba decarboxylase activity
same,decarboxylation activity of dicamba,"[6]; E. coli cell assay, 108 sequences tested",showed decarboxylation activity of dicamba
"N61A: point mutation N61A of SEQ ID NO:109 (protein, Dicamba decarboxylase variant clone DC.4.032) MAQGKVALEEHFAIPETLQDSAGFVPGDYWKELQHRLLDIQDTRLKLMDAHGIETMILSLAAPAVQAIPDRRKAIEIARRANDVLAEECAKRPDRFLAFAALPLQDPDAATEELQRCVNDLGFVGALVNGFSQEGDGQTPLYYDLPQYRPFWGEVEKLDVPFYLHPRNPLPQDSRIYDGHPWLLGPTWAFAQETAVHALRLMASGLFDEHPRLNIILGHMGEGLPYMMWRIDHRVAWVKLPPRYPAKRRFMDYFNENFHITTSGNFRTQTLIDAILEIGADRILFSTDWPFENIDHASDWFNATSIAEADRVKIGRTNARRLFKLDGA",Average Activity (Fold of SEQ ID NO: 109),"[7]; dicamba decarboxylation activity of point mutants of SEQ ID NO: 109 (NNK saturation mutagenesis), relative to the unchanged template",2.9 Fold of SEQ ID NO: 109
same,Average Activity (Fold of SEQ ID NO: 109),"[7]; dicamba decarboxylation activity of single point mutants of SEQ ID NO:109, relative to unchanged template",2.9 Fold of SEQ ID NO: 109
same,KM compared with template SEQ ID NO:109,[8]; FIG. 6,unchanged
same,kcat compared with template SEQ ID NO:109,[8]; FIG. 6,17 fold
"109 (protein, Dicamba decarboxylase variant clone DC.4.032) MAQGKVALEEHFAIPETLQDSAGFVPGDYWKELQHRLLDIQDTRLKLMDAHGIETMILSLNAPAVQAIPDRRKAIEIARRANDVLAEECAKRPDRFLAFAALPLQDPDAATEELQRCVNDLGFVGALVNGFSQEGDGQTPLYYDLPQYRPFWGEVEKLDVPFYLHPRNPLPQDSRIYDGHPWLLGPTWAFAQETAVHALRLMASGLFDEHPRLNIILGHMGEGLPYMMWRIDHRVAWVKLPPRYPAKRRFMDYFNENFHITTSGNFRTQTLIDAILEIGADRILFSTDWPFENIDHASDWFNATSIAEADRVKIGRTNARRLFKLDGA",Dicamba Decarboxylation activity,"[5]; Table 5, designed variants with improved activity",Yes
same,Percent Activity Improvement Over Parent (%),[5]; parent SEQ ID NO:1 or SEQ ID NO:41 listed as 100,234%
same,Enzymatic Detection level,[6]; dicamba decarboxylation activity of the protein of the given SEQ ID NO,High
same,Km,[8]; [9],4.66 mM
same,kcat,[8]; [9],0.032 min⁻¹
